Assay results taken from the supplement of paper PMC10126150.
± gives the standard deviation of the averaged measurements.

Test system: ATP
Test: switch fluorescence ratio, 500 uM ATP over buffer (Cy3 cluster intensity, sum of 5 cycles each) (fold (ratio)); higher = stronger signal-on switching upon ATP binding; sequences stand for … in TCGTCGGCAGCGTCAGATGTGTATAAGAGACAGTTTTTTTTTTTTTTTTTTTTTTTTT…TC
Conditions: aptamer strand: ATP DNA aptamer (quencher-CACCTGGGGGAGTATTGCGGAGGAAGG + anchor), 100 nM annealed; ATP concentration: 500 uM
Summary of the method: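 For every switch-domain sequence, the fluorescence ratio is the mean of per-cluster values, each being summed target-cycle Cy3 intensity over summed buffer-cycle Cy3 intensity. Clusters outside 100-1000 RFU were excluded. On a modified Illumina MiSeq flow-cell, the Cy3-labelled switching-strand clusters were annealed to 100 nM quencher-labelled ATP aptamer, imaged in selection buffer and then after 15 min with 500 uM ATP at 22 °C. Five such cycles were run, with NaOH stripping and re-annealing between them.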
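Note: ATP exposure 15 min at 22 °C before imaging.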

| Sequence | switch fluorescence ratio |
| --- | --- |
| CTGTTGGAAG | 0.969 ± 0.012 |
| CTCTTGGGGC | 0.987 ± 0.041 |
| ATTTTCGAGT | 1 ± 0.021 |
| GATAATATTT | 0.986 ± 0.011 |
| TTTCATGGGT | 1 ± 0.018 |
| CCGTTTCGGT | 0.976 ± 0.014 |
| GCTAAAGGGA | 1.03 ± 0.042 |
| CAATTTATAT | 0.994 ± 0.019 |
| CGCATAGGAC | 3.16 ± 0.28 |
| AGGGGGATCA | 1.011 ± 0.0061 |
| ATTGGACGTT | 0.988 ± 0.016 |
| GATAGGGTTT | 1.06 ± 0.076 |
| TTCGGTAGGG | 0.926 ± 0.053 |
| TGGTAGGGG | 1.01 ± 0.016 |
| GGTCTCTGGG | 1 ± 0.016 |
| GGGTTTTTCG | 0.994 ± 0.062 |
| GTCGCAGGAG | 1.05 ± 0.011 |
| TTTTTTGCCA | 1.01 ± 0.051 |
| TTGGGCAGCA | 0.99411 ± 0.00084 |
| TAAATTAGCT | 1.02 ± 0.037 |
| ATTCATAGGC | 1 ± 0.052 |
| GTGGGAATGG | 0.9747 ± 0.0072 |
| ATTTGGAGG | 0.986 ± 0.013 |

| Sequence | switch fluorescence ratio |
| --- | --- |
| AGCGGCCCGG | 1.02 ± 0.017 |
| TGGTTTGGCT | 1.03 ± 0.023 |
| CCATTTGCGG | 1.001 ± 0.0088 |
| TTCGGAGTCT | 0.985 ± 0.094 |
| AGGAAATTGT | 1.01 ± 0.059 |
| AGACATTCCT | 1.3 ± 0.34 |
| TTTGTTGGAA | 0.99 ± 0.025 |
| GATGGACGTT | 0.995 ± 0.035 |
| TTCAAGGTCA | 1.02 ± 0.028 |
| AGTAGTAAAC | 1.02 ± 0.016 |
| GGGGGATAGG | 1 ± 0.025 |
| AGTGTGTTCT | 1.02 ± 0.021 |
| TCCGTGGGGA | 1.16 ± 0.25 |
| GGTCGGGACC | 0.998 ± 0.033 |
| TTTCATTGTA | 1.01 ± 0.013 |
| TACGGGATGG | 0.989 ± 0.029 |
| GTCACGGGCG | 1.006 ± 0.0091 |
| CAACATGATG | 0.995 ± 0.013 |
| CAATACTTAT | 1.01 ± 0.019 |
| GGGCGGGGTG | 1.03 ± 0.025 |
| GAACCAGTGC | 1.23 ± 0.083 |
| GAGTGAGGTT | 0.955 ± 0.046 |
| TATAAGTCAC | 1.146 ± 0.011 |

| Sequence | switch fluorescence ratio |
| --- | --- |
| GTCAGGAGGG | 0.971 ± 0.026 |
| ATATCCCTCG | 1.01 ± 0.013 |
| TGTGTATTCC | 1.05 ± 0.037 |
| ATCGGACGCG | 0.987 ± 0.016 |
| GATGTTTAGT | 1.04 ± 0.018 |
| TTGGAAAAAT | 1.05 ± 0.071 |
| GAAATTAACT | 1.01 ± 0.033 |
| TAATGTGTAA | 0.9944 ± 0.0052 |
| CATTATATGT | 1.01 ± 0.046 |
| CATTGACTTT | 1.02 ± 0.016 |
| CGAACAGCGA | 1.27 ± 0.015 |
| CAAGTAGGGA | 1.01 ± 0.057 |
| ATAGGATGGA | 1 ± 0.029 |
| ACACGTGCCC | 1 ± 0.028 |
| CAGGCCTGAC | 1.02 ± 0.061 |
| GTTGATGCCG | 1.001 ± 0.0012 |
| TTTGGTTTAG | 1 ± 0.015 |
| AACTGAAGTC | 0.976 ± 0.01 |
| GTATTTTGCG | 1.12 ± 0.26 |
| AGGTTTCCGT | 1.02 ± 0.032 |
| CCGGGAGCCG | 1.023 ± 0.0053 |
| ATGTAGTGCG | 0.99 ± 0.021 |
| GCCATGTTGA | 1.02 ± 0.0063 |

| Sequence | switch fluorescence ratio |
| --- | --- |
| TTTTGTACAA | 1.04 ± 0.059 |
| AAGACTTCTT | 0.98673 ± 0.00038 |
| CAGCGCCATA | 1.078 ± 0.0042 |
| GGTGGGGGGC | 0.978 ± 0.048 |
| TACCCATTAC | 1.72 ± 0.041 |
| ACTGTCGCCA | 1.023 ± 0.0059 |
| ATGGGGGGTT | 1.01 ± 0.043 |
| AGGTAAGCTA | 1.025 ± 0.005 |
| CTTACGTGTG | 1.03 ± 0.034 |
| AAGAAAGGGG | 0.979 ± 0.034 |
| TTTTAGTACA | 1 ± 0.048 |
| TTTGATCTGT | 0.984 ± 0.012 |
| GGAAACGCGA | 1.54 ± 0.093 |
| ATGGGCTTAC | 1.2301 ± 0.00072 |
| TTGAAAGGGC | 1.02 ± 0.019 |
| CACGAATGCT | 1.04 ± 0.019 |
| GGCTAAGGTT | 0.997 ± 0.015 |
| TTAATAAATG | 1 ± 0.015 |
| TAGGGGTTCT | 1.01 ± 0.061 |
| GTCTCAGGTT | 1.04 ± 0.014 |
| GGTCAGTGAT | 1.01 ± 0.06 |
| TTTATTTTCA | 0.9924 ± 0.0046 |
| TTTAAGAAAT | 0.986 ± 0.011 |

| Sequence | switch fluorescence ratio |
| --- | --- |
| TAGACGAAAA | 1.03 ± 0.024 |
| CACGTAAACG | 1.0351 ± 9.7e-05 |
| ATCAAATCGA | 1 ± 0.043 |
| TTCGCGGCAC | 2.44 ± 1.3 |
| AGTTGGTCTA | 1 ± 0.017 |
| TTGGAGGCGA | 0.994 ± 0.062 |
| CCTTAACGGC | 1.06 ± 0.015 |
| TAGGATACGG | 0.995 ± 0.012 |
| GGAAGGGGGA | 1.07 ± 0.096 |
| GGGTTTCATG | 0.995 ± 0.024 |
| GATGATTTTG | 0.979 ± 0.047 |
| GCGGTGAGGG | 0.993 ± 0.052 |
| CAGGTACATA | 1.055 ± 0.0086 |
| TTAAGTTCTT | 0.996 ± 0.019 |
| AGCGCGGGGG | 1.002 ± 0.006 |
| GCGTTTTTCG | 0.977 ± 0.042 |
| AGTGGACATC | 0.99098 ± 0.00034 |
| GCGATAATTT | 0.9975 ± 0.0076 |
| GGCTATGGGT | 1.02 ± 0.024 |
| GAGTACTAGA | 1.02 ± 0.018 |
| GTTCAGATTG | 1.03 ± 0.0048 |
| AACAGGGGGC | 1.04 ± 0.023 |
| TTGTAATTAG | 1 ± 0.039 |

| Sequence | switch fluorescence ratio |
| --- | --- |
| GTTGGGGAGT | 0.9776 ± 0.0062 |
| TTTTTGAGAA | 0.983 ± 0.033 |
| GTGTGACACG | 1.04 ± 0.064 |
| GAGTTTCGTG | 0.965 ± 0.01 |
| AAAGTTCCTA | 0.968 ± 0.033 |
| GGATTGAGGC | 0.968 ± 0.0046 |
| GGTAGTTAGG | 1.03 ± 0.013 |
| TTATCGTGTT | 0.984 ± 0.042 |
| GGGCTAGAGG | 0.974 ± 0.022 |
| AGCGAAATTT | 1.04 ± 0.023 |
| TGTGCGGGGG | 1.02 ± 0.019 |
| TTGCAGATGG | 0.999 ± 0.057 |
| TTACTTATCT | 1.02 ± 0.033 |
| TTTTATACGG | 0.9874 ± 0.0087 |
| GGCTAACGAC | 1.063 ± 0.0021 |
| GGCTCATCA | 1.01 ± 0.023 |
| TGGTAAACGG | 0.988 ± 0.02 |
| CACTAGAGGT | 1.03 ± 0.06 |
| TTTGAGTGCT | 0.997 ± 0.029 |
| ATTGATGGGC | 0.9644 ± 0.0037 |
| GGGAGGAGTG | 0.98 ± 0.029 |
| GCTTGTTGGG | 1.02 ± 0.038 |
| TGGGATTGAC | 1.06 ± 0.019 |

| Sequence | switch fluorescence ratio |
| --- | --- |
| CGCTCGTGCG | 1 ± 0.017 |
| GCAGTTGAGT | 1.01 ± 0.017 |
| TAAGCTGTTA | 0.981 ± 0.038 |
| GGTCGGGTTT | 1.01 ± 0.014 |
| AACTTTTGCT | 1.03 ± 0.066 |
| ATATAGGGTT | 1.04 ± 0.038 |
| CGCAGAGCGA | 1.02 ± 0.0082 |
| GAAGACCGGT | 0.985 ± 0.047 |
| AATGGCCAAG | 1 ± 0.0056 |
| GAAAGGATTA | 0.995 ± 0.063 |
| GGCTGGCTGA | 0.987 ± 0.045 |
| AAAATCTAGT | 1.014 ± 0.0081 |
| GTGGTGAAGG | 0.99 ± 0.039 |
| TAAGTGTAAA | 0.986 ± 0.013 |
| CATGGGAGAC | 0.986 ± 0.022 |
| TGTTTAAATG | 1.01 ± 0.026 |
| TTATTCTTTT | 1 ± 0.026 |
| AAATCCCTAC | 1.06 ± 0.028 |
| GGCAACGCGT | 1 ± 0.025 |
